This is an account of results in patent US20070191278A1 (AVIDEX, published 2007).

The target of test [1] is HLA-A2-pol (biotinylated HLA-A2 plus HIV-1 polymerase 476-484, immobilised on streptavidin) (human; HIV-1).
Test [2] deals with HLA-A2-flu (biotinylated HLA-A2 plus Influenza matrix protein 58-66, immobilised on streptavidin) (human; Influenza). The experiment in a line: SPR (BIAcore) equilibrium binding, immobilised HLA-A2-flu, 37 °C, mean ± range.

B1: soluble CD8αα receptor (residues 1-120 of the mature human CD8α protein, expressed in E. coli and refolded as a homodimer) (receptor)
chain: not shown
notes: also called sCD8αα; CD8 A
For the molecule B1, in test [1], the koff was 18 s⁻¹ and the on-rate constant (kon) was at least 140000 M⁻¹ s⁻¹. In test [2], the Kd was found to be 629 µM.
